B1: GST–DAXX tower (183–251) E225A (domain or fragment)
chain: GSRRQIQRLEQLLALYVAEIRRLQEKELDLSELDDPDSAYLQAARLKRKLIRLFGRLCELKDCSSLTGR
B2: GST–DAXX tower (183–251) K229A (domain or fragment)
chain: GSRRQIQRLEQLLALYVAEIRRLQEKELDLSELDDPDSAYLQEARLARKLIRLFGRLCELKDCSSLTGR
B3: GST–DAXX tower (183–251) Q206A (domain or fragment)
chain: GSRRQIQRLEQLLALYVAEIRRLAEKELDLSELDDPDSAYLQEARLKRKLIRLFGRLCELKDCSSLTGR

Biological target: wild-type histone H3.3–H4 tetramers (human, UniProt P84243 1-136; P62805 1-103)
Assay: pull-down

| Binder | binding result |
| --- | --- |
| B1 | binds |
| B2 | binds |
| B3 | binds |

Source: PMC4056191 (Nature, 2012)
